Reference: patent US20240035010, “COMPOSITIONS COMPRISING A VARIANT POLYPEPTIDE AND USES THEREOF” (Arbor Biotechnologies, Inc., published 2024)

T1: variant nuclease D590G combination (P14R, D32R, I61R, E311R, D590G)
T1 chain: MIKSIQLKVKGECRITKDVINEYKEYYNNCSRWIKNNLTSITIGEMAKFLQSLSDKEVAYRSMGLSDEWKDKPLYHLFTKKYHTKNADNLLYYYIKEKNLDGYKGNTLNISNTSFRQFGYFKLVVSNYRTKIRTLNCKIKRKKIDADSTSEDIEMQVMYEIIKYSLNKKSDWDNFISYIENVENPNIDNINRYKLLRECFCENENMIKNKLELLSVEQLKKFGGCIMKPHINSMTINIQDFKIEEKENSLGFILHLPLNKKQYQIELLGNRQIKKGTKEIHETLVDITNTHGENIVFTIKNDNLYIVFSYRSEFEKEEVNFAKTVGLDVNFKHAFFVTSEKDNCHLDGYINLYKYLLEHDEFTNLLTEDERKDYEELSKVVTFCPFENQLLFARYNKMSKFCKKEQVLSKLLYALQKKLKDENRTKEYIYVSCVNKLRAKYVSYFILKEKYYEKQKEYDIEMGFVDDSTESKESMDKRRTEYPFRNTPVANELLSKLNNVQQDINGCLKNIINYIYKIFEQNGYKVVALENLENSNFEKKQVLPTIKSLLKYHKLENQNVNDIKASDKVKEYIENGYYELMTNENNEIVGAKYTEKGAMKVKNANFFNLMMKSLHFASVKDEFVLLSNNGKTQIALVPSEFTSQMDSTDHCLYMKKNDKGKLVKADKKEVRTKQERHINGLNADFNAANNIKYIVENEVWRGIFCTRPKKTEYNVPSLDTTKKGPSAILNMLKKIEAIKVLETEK

T2: variant nuclease SEQ ID NO: 53 (P14R, D32R, I61R, E311R, T338G, E736G)
T2 chain: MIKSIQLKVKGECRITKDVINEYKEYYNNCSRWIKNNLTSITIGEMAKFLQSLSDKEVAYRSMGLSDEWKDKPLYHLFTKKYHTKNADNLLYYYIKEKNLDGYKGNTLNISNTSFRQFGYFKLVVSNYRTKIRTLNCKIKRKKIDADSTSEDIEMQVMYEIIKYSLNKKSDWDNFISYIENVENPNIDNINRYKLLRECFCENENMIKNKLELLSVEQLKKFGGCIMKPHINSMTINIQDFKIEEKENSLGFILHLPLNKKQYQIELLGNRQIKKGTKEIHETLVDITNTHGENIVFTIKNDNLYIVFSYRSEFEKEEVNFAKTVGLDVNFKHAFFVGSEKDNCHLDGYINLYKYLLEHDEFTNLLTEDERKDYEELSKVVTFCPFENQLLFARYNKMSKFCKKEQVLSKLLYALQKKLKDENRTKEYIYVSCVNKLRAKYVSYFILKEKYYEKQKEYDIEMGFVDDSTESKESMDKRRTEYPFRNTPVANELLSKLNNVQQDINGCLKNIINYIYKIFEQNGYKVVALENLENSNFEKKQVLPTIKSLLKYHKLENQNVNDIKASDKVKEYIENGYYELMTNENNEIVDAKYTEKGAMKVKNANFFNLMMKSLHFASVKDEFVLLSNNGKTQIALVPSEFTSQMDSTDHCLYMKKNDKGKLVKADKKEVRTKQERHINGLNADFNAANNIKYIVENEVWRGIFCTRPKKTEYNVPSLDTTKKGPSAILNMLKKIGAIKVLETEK


Tests used:
[1] = target: T1, variant nuclease D590G combination; experiment: cell_activity; PAM 5'-TTTG-3'; settings: tags: pcDNA3.1 expression
Procedure: Approximately 16 hours prior to transfection, 25,000 HEK293T cells in DMEM/10% FBS+Pen/Strep (D10 media) were plated into each well of a 96-well plate. On the day of transfection, the cells were 70-90% confluent. For each well to be transfected, a mixture of Lipofectamine 2000™ and Opti-MEM™ was prepared and incubated at room temperature for 5 minutes (Solution 1). After incubation, the Lipofectamine 2000™:Opti-MEM™ mixture was added to a separate mixture containing nuclease plasmid, RNA guide plasmid, and Opti-MEM™ (Solution 2). In the case of negative controls, the RNA guide plasmid was not included in Solution 2. Solutions 1 and 2 were mixed by pipetting up and down, then incubated at room temperature for 25 minutes. Following incubation, the Solution 1 and 2 mixture was added dropwise to each well of a 96-well plate containing the cells. Approximately 72 hours post transfection, cells were trypsinized by adding TrypLE™ to the center of each well and incubating at 37° C. for approximately 5 minutes. D10 media was then added to each well and mixed to resuspend cells. The resuspended cells were centrifuged at 500 g for 10 minutes to obtain a pellet, and the supernatant was discarded. The cell pellet was then resuspended in QuickExtract™ buffer (Lucigen®), and cells were incubated at 65° C. for 15 minutes, 68° C. for 15 minutes, and 98° C. for 10 minutes.
This Example describes assessment of indel activity at multiple target sites using the wild-type polypeptide of SEQ ID NO: 3 or variant polypeptides of Table 4. The variant polypeptides were cloned into a pcDNA3.1 backbone (Invitrogen), and the cells were transfected as described in Example 7.
The percentage of NGS reads containing indels (% indels) were calculated. For each variant polypeptide and target, % indels were averaged across two bioreplicates and two technical replicates. These values were then compared to % indels of the wild-type polypeptide of SEQ ID NO: 3.

[2] = target: T2, variant nuclease SEQ ID NO: 53 (P14R, …); experiment: cell_activity; % indels; HEK293T; PAM 5'-ATTG-3'; settings: tags: pcDNA3.1 expression

Binder | indel activity [1] | indel frequency [2]
AAVS1 crRNA ; AAVS1 target (ssRNA ; dsDNA) RNA: CUUGUUGUAUAUGUCCUUUUAUAGGUAUUAAACAACUGAGAAUGGUGCGUCCUAGG DNA 1: TGAGAATGGTGCGTCCTAGG DNA 2: CCTAGGACGCACCATTCTCA | 5.96 fold of WT | –
EMX1 crRNA ; EMX1 target (ssRNA ; dsDNA) RNA: CUUGUUGUAUAUGUCCUUUUAUAGGUAUUAAACAACCCGCCGCUUCCUGAGCCAUC DNA 1: CCGCCGCTTCCTGAGCCATC DNA 2: GATGGCTCAGGAAGCGGCGG | – | 11.9 fold of WT
